One substance from patent publication US20150111814A1 can be followed below.

For this test, the target named is HIV-1 BaL envelope protein spike (Env) on virions (HIV-1 BaL strain). Description: cell-based or functional assay.

The substance “MVN-DAVEI8 (microvirin-linker-MPER fusion)” yielded an EC50 of virolysis (% p24 release) of 780 nM.
